Results reported in patent US12472269B2, “Liver-specific inducible promoters and methods of use thereof” (ASKBIO INC., priority 2019, dated 2025).

Legend:
AXOL ARE-hepatocytes = assay: Luciferase expression from PBREM promoters in AXOL ARE-hepatocytes, induction by CITCO; format: cell-based, human; conditions: induction with CITCO, mean of 3 biological replicates
From the text: Axol Assay-Ready Expanded (ARE) Hepatocytes are primary human hepatocytes that have been expanded in vitro. Large batch sizes (up to 2000 vials) are available, ensuring a reliable, ready-to-use and consistent source of primary hepatocytes. ARE Hepatocytes express CYP enzymes, are metabolically functional, are polarized and can be infected by the Hepatitis C virus. AXOL ARE-hepatocytes express CAR negating the need to transfect with a CAR-expressing plasmid.
• AXOL assay-ready expanded (ARE) hepatocytes (Axol, ax3701) • ARE hepatocyte thawing medium (Axol, ax3705) • ARE maintenance medium (Axol, ax3710) • Virimer red transfection reagent (Lipocalyx, VR04-02-15) • CITCO, lucifierase, β-galactosidase and BCA kits as described above
ARE hepatocytes were cultured and transfected as described in the manufacturer's manual. 200,000 cells were seeded in 2 ml culture medium in collagen-coated 6 well plate. The cells were incubated for 4 h at 37° C. and 5% CO2 for sufficient adhesion. 200 μl of transfection mixture containing the DNA to be transfected (PB1-MinTK/PB1-CMV/PB1-SV40 operably linked with luciferase and β-galactosidase containing promoter) was added and the cells were incubated on an orbital shaker at 100 rpm for three hours at 37° C. and 5% CO2. 3 hrs after transfection CITCO was added to the appropriate wells. Cells were incubated under static conditions at 37° C. and 5% CO2 overnight and in the morning the medium was replaced with fresh ARE Hepatocyte Maintenance Medium. Readout was 24 hrs after induction. […]

[1] = tested on: Huh7 and ARE primary cells; assay: Effect of AAV ITRs: pAAV constructs transfected into Huh7 and ARE primary cells, compared with pGL4.10; format: cell-based, human; conditions: mean of 3 biological replicates
From the text: Following from Example 3, it was decided to take PB1-MinTK and PB1-2-MinTk forward for in vivo studies. To facilitate this the two aforementioned constructs were cloned into pAAV vector (Takara, Clontech) to allow for the preparation of AAV viruses. The inserts where cloned using restriction digest of the pAAV plasmid and PCR amplification of the original pGL4.10 constructs.
We investigated the effect of the Inverted Terminal Repeats (ITRs) on the activity of the promoters. This was done as we have observed interference from the AAV ITRs in other projects. To this end, the pAAV-PB1-MinTk and pAAV-PB1-2-MinTk were transfected into Huh7 and ARE primary cells as previously described and their activity assessed.

AXOL ARE hepatocytes = assay: Luciferase expression from pAAV constructs in AXOL ARE hepatocytes without CITCO, with CITCO and after CITCO withdrawal; format: cell-based, human; conditions: pAAV vector
Description: Luciferase expression from the PB1-MinTK and PB1-2-MinTK constructs in the pAAV vector in AXOL ARE hepatocytes is inducible by CITCO (1 μM) but reduces after removing CITCO as shown in FIG. 5.

CD1 male mice = assay: In vivo bioluminescence imaging of mice injected with AAV9 constructs, induction by phenobarbital
Description: • Seed HEK 293-AAV cells in 15 cm plates. To be 70-80% confluent on the day of transfection • Final volume on each plate: 15 ml Day 2: Prepare Transfection Mix: • DNA mix/plate: pDG9 (Packaging plasmid for AAV9): 10.5 μg/pHGTI (Ad. Helper plasmid): 31.5 μg/Vector plasmid: 10.5 μg/Prepare in serum free DMEM/Optimem • Transfer mix/plate: PEI: 125 μl/Prepare in serum free DMEM/Optimem • Add DNA mix into transfection mix. Mix and leave at room temperature for 15-20 mins. • Add 3 ml of transfection mix to each plate drop-wise and gently distribute. Incubate for 24 h. Day 3: • Replace media with 15 ml DMEM supplemented with P/S and 2% FCS. Leave for 48 h. Day 5: • Collect supernatant and pool in 50 ml tubes, 25 ml each tube. Store at −20° C. • Collect cells: Add 5 ml of PBS to each plate→scrape and collect in 50 ml tubes. • To wash plates, add another 1 ml of PBS and collect. • Spin at 1500 rpm for 5 mins. • Remove supernatant and resuspend pelleted cells in 1 ml/plate TD lysis buffer→pool • Store at −80′C. Endonuclease Treatment Cells: • Freeze and thaw pellets 5 times→˜20 mins at 37° C. then ˜20 mins in dry ice (or −80° C.). • Add 25 μl/ml cells of 20% Deoxycholate (or 50 μl/ml of 10% Deoxycholate). • Add 8 μl/ml cells of benzonase. • Incubate at 37° C. for 30 mins. • Spin at 4 Krpm for 30 mins. • Filter supernatant using […] filters. • Store at 4° C. for up to 24 h. Supernatant: • Add 2.5 μl/25 ml supernatant of benzonase. • Add 50 μl/25 ml supernatant of MgSO4. • Incubate at 37° C. for 30 mins. • Spin at 4 Krpm for 30 mins. • Filter supernatant using […] filters. • Store at 4′C for up to 24 h. Hplc Purification • Place both lines in 20% ETOH→template→system wash • Put line A in PBS and line B in Glycine→template→system wash • Place the column in the machine→manual run→flowrate: 5 ml/min→Run for 25 ml or until the UV line is flat. • Prepare FACS tubes (10 for cells and more for supernatant): add 30 μl/tube Tris→put in the machine to collect vectors. • Place the waste lines in a separate tube to be able to run them again through the column. • Run samples (flowrate low, depending on how fast the system and how concentrated the sample is; for cells it is slower, for supernatant it is higher). • After running the waste through the column, wash with PBS→flowrate: 5 ml/min until the UV line is flat. • Set→fraction size: 1 ml; Flowrate: 1 ml/min; concentration % B: 100%→run. • Start collecting: Look for the peak. The peak indicates vector purification. Mark the tubes containing these vectors. • Save programme before exiting. • Wash with PBS→75 ml, 5 ml/min • Wash with Na3PO4 (to store the column in)→75 ml, 5 ml/min • Remove column and store at 4° C. • Wash the machine with PBS→template→system wash • Wash the machine with 20% ETOH→template→system wash • Put both lines in 20% ETOH and shut down • Add 2 L of PBS into a big bucket and put the Dialysis cassette (Side-A-Lyzer; Thermo scientific) to prime. • Collect the vectors from the marked FACS tubes using a syringe and needle and add into the dialysis cassette→remove excess air from the membrane, carefully place the rubber on top of the cassette and let it float in the PBS-containing bucket→leave over night at room temperature on a slow rotating rotor. Next Day: • Prime membrane by adding 5 ml PBS onto a centrifugal filter (Amico Ultra 15; MERCK)→spin for 5 mins at 4 Krpm • Remove excess PBS from inside the membrane. • Take vectors out from the cassette and load onto the membrane→spin for 5 mins at 4 Krpm • Wash the membrane with the vectors inside few times, then collect into 2 ml centrifuge tube filter 0.22 μM (Spin-X; COSTAR) • Spin for 3 mins at 13 Krpm. • Remove filter and aliquot: 1×100 μl (for injection), the rest in 10-2 μl aliquots. • Store in −80° C. • Virus quantification was performed using qRT-PCR with primers and probes for the luciferase gene. Mice Experiment […]

[2] = AAV9, phenobarbital intraperitoneally

B1: PB1-2-MinTK: promoter: 3×PBREM and min-TK promoter, SEQ ID NO: 11 (nucleic acid)
DNA: TCTGTACTTTCCTGACCTTGGCACAGTGCCACCATCAACTTGCCTGACACCCATTACTCGCATCCATTCTCTCTGTACTTTCCTGACCTTGGCACAGTGCCACCATCAACTTGCCTGACACCGCACTGAAGGTCCTCAATCGTCTGTACTTTCCTGACCTTGGCACAGTGCCACCATCAACTTGCCTGACACCGCTGGGAGTTCGTAGACGGAGATCCGGCCCCGCCCAGCGTCTTGTCATTGGCGAATTCGAACACGCAGATGCAGTCGGGGCGGCGCGGTCCGAGGTCCACTTCGCATATTAAGGTGACGCGTGTGGCCTCGAACACCGAGCGACCCTGCAGCGACCCGCTTAACAGCGTCAACAGCGTGCCGCAGATCTCGAGGAGCTTGGCGAGATTTTCAGGAGCTAAGGAAGCTAAAC
modifications: PB1-2-MinTk (3xPBREM)
In the case of B1, the “induced luciferase expression as a ratio to CMV-IE” value (AXOL ARE-hepatocytes) is reported as 4.1, the “induction of luciferase expression across pGL4.10 and pAAV vectors and cell types” value [1] is reported as “comparable across vectors and cell types” and the “luciferase expression with CITCO” value (AXOL ARE hepatocytes; CITCO (1 μM)) is reported as “inducible”. For the same molecule, the “activity of the promoter after removal of CITCO” value (AXOL ARE hepatocytes; CITCO withdrawal) was “almost baseline levels”, the “luciferase expression before induction” value (CD1 male mice; 0 hrs) was “no expression of the luciferase gene” and the “time at which induction is complete” value (CD1 male mice; [2]) was 48 h. The “time of maximal activity after induction” value (CD1 male mice; [2]) was 24 h and the “tissue distribution of luciferase expression” value (CD1 male mice; AAV9 via tail vein) was “confined to the liver”.
